Experimental data taken from article PMC9103184, “Kunitz-Type Peptides from Sea Anemones Protect Neuronal Cells against Parkinson’s Disease Inductors via Inhibition of ROS Production and ATP-Induced P2X7 Receptor Activation” (International Journal of Molecular Sciences, 2022).
pKi: −log10 of the molar value. Where two headings read alike, the source gives them in different places.

Columns and labels:
trypsin [1] = molecular target: T1, trypsin (Bos taurus, UniProt P00760); experiment: Residual trypsin-inhibitory activity after heating; format: biochemical; conditions: all temperature ranges up to 100 °C; 7 μM peptide, 1.2 mM BAPNA, 37 °C, 410 nm, three parallel experiments
T1 sequence (P00760 24-246): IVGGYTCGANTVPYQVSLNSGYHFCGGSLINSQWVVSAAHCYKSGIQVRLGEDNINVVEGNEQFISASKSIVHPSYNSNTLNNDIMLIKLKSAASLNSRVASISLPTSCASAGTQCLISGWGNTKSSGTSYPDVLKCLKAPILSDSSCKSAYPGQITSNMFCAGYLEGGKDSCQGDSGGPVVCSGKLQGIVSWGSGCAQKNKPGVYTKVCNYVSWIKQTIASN
Description: Figure 6 The effects of temperature on the trypsin-inhibitory activity levels of peptides. Peptides were incubated at the temperatures for 30 min and their residual activities were measured.
The temperature influence on the activity levels of peptides was assessed by measuring their residual inhibitory activity levels. After preincubation at temperatures ranging from 25 to 100 °C for 25 min, the peptide solutions were added to trypsin solution and the reaction mixtures were incubated for 10 min at 37 °C, then 1.2 mM BAPNA was added, followed by incubation at 37 °C for 30 min. The final concentration of the peptides was 7 μM. Substrate hydrolysis was measured at 410 nm. The residual activity was calculated based on the results of three parallel experiments according to the following equation [60]:% = (1 − residual enzyme activity/enzyme activity without inhibitor) × 100

[2] = Thermal stability by CD spectroscopy; format: physicochemical
Description: Figure 5 Evaluation of the thermal stability of peptides in deionized water via CD spectroscopy. Recordings of the CD spectra of HCIQ2c1 (a), HMIQ3c1 (b), HCIQ4c7 (c), and HCIQ1c9 (d) were conducted in the far UV region (190–240 nm) after the solutions were incubated over a temperature range from 25 °C to 100 °C for 20–25 min.
Circular dichroism (CD) spectra were recorded on a Chirascan-Plus CD spectropolarimeter (Applied Photophysics, Leatherhead, UK) in quartz cuvettes with an optical path length of 0.1 cm for the peptide spectrum region. The peptides were dissolved in deionized water ([…]) and incubated at temperatures ranging from 25 °C to 100 °C for 20–25 min before recording the CD spectra. The secondary structure elements were calculated using the Provencher–Glockner method using advanced Provencher calculation programs from the CDPro software package (Leatherhead, UK).

P2X7R = experiment: ATP-induced YO-PRO-1 uptake in Neuro-2a cells; format: cell-based, murine; conditions: 0.01–1.0 μM, 4 mM ATP
Description: Figure 11 The effects of the peptides on ATP-induced Neuro-2a cell viability and activation of P2X7R. (a) Impact of the peptides on Neuro-2a cell viability in the presence of 4 mM ATP. The peptides were tested at concentrations of 0.01, 0.1, and 1.0 μM. Cells were incubated with peptides for 1 h at 37 °C, then for 48 h with ATP. (b) Effects of the peptides (0.01, 0.1, and 1.0 μM) on YO-PRO-1 uptake in Neuro-2a cells. ATP was used as a P2X7R agonist. A438079 (10 μM) was used as a standard inhibitor of P2X7R. The peptide effects were evaluated against the effects of ATP. The data are shown as means ± SE; *—p < 0.05 compared to the effect of ATP alone.
For the uptake measurements of the large cationic dye YO-PRO-1, the peptides at final concentrations of 0.01, 0.1, and 1.0 μM were added to the culture medium with Neuro-2a cells and further incubated for 1 h at 37 °C with 5% CO2. Then, the cells were washed once with Hanks’ balanced salt solution (HBSS) (140 mM NaCl, 5 mM KCl, 0.8 mM MgCl2, 2 mM CaCl2, 10 mM glucose, 10 mM HEPES, pH 7.4) and filled with 180 μL of the same buffer. YO-PRO-1 (Sigma-Aldrich, St. Louis, MO, USA) was loaded into the wells to a final concentration of 5 μM, the cells were incubated for 15 min at 37 °C, then ATP was added to a final concentration of 4 mM and the plates were incubated for an additional 10 min. Then, the cells were washed three times with the buffer solution and the fluorescence intensity levels were measured with a PHERAstar FS plate reader (BMG, Germany) at λex = 480 nm and λem = 520 nm. A438079 (10 μM), a standard inhibitor of P2X7R, was used as positive control. The effectiveness of the peptides was evaluated relative to the control with ATP.

trypsin [3] = molecular target: T1, trypsin; conditions: cited from earlier work
Description: As mentioned above, the main function of Kunitz-type peptides is the inhibition of proteases, in particular trypsin. To confirm the bioactive conformation of HCIQ1c9, its ability to inhibit trypsin was determined. […] The decrease in trypsin-inhibitory activity of HCIQ1c9 and HCIQ4c7 in comparison with HCIQ2c1 is probably associated ... || The active spatial conformation of the peptides was also confirmed by the presence of trypsin-inhibitory activity. […] Thus, both negatively and positively charged residues at position P1’ led to decreases in the trypsin-inhibitory activity of the peptides, with HCIQ4c7 beings a stronger trypsin inhibitor than HCIQ1c9. This was due to the residue Glu17, which can make additional contact with ...

Neuro-2a cells = conditions: cited from earlier work
Description: The peptides were tested for cell viability in in vitro 6-OHDA-, rotenone-, paraquat-, and MPP^+-induced Parkinson’s disease models. All peptides were non-toxic on Neuro-2a cells at a concentrations up to 10 µM (Figure S2). The viability of neurotoxin-treated cells was about 65% versus control (Figure 7).

serine proteinases = conditions: cited from earlier work
Source text: A new peptide, HCIQ1c9, with Gly17Arg at position P1’ of the reactive site was also found in a combinatorial library of H. crispa Kunitz-type peptides and produced in E. coli. Thus, in this work four isoforms of Kunitz-type peptides with point a.a. substitutions were studied in various in vitro models.

## HCIQ2c1: recombinant Kunitz-type peptide from Heteractis crispa, UniProtKB ID A0A6B7FBD3 (IQGNICSEPKKVGRCRGSFPRFYFDSETGKCTPFIYGGCGGNGNNFETLHACRAICRA; UniProt A0A6B7FBD3 28-85, looked up)
Trypsin [1]
  trypsin-inhibitory activity after heating: inhibit trypsin completely at all temperature ranges
[2]; 100 °C, deionized water, 20–25 min
  CD spectral change on further heating: decreased positive peaks at 193 nm
[2]; CD spectra and residual trypsin-inhibitory activity
  thermostability: retains conformation and biological activity until: 90–100 °C
[2]; deionized water, 25–100 °C for 20–25 min, 190–240 nm
  CD spectrum: no significant changes after heating until: 90 °C
P2X7R
  inhibition of ATP-induced YO-PRO-1 uptake: inhibited ATP-induced dye uptake, but their effects were not statistically significant
Trypsin [3]; as shown previously, ref not printed at place, read-out: inhibited trypsin at (order of magnitude)
  pKi: ~8.00
Trypsin [3]; read-out: trypsin inhibitory constant (Ki)
  pKi: 7.28
Neuro-2a cells
  increase in viability of 6-OHDA-treated cells: 47%
  protection against 6-OHDA compared with HCIQ4c7: stronger neuroblastoma cell viability against 6-OHDA than HCIQ4c7
Serine proteinases
  interaction with serine proteinases: interact with several serine proteinases, including inflammatory ones
